The values below come from patent publication US20210380703A1 (RIGEL PHARMACEUTICALS, published 2021).

In experiment [1] the target is T1, biotinylated goat anti-human kappa light chain.
T1 construct: Positive control of the ELISA
Put plainly: ELISA; positive control. In short, it runs like this:
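mAb binding by ELISA; antigens: hu ACVR2A, mu ACVR2A; pos ctrl biotinylated goat anti-hu kappa LC; neg ctrl hu Fc.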
For orientation: In an ELISA, binding on a coated surface is turned into a signal by an enzyme label.

The target in a further experiment is human ACVR2A (human, UniProt P27037 20-135, limits assumed). Put plainly: ELISA. In short, it runs like this:
(§1)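 Binding signal was read by ELISA after ACVR2A-specific monoclonal antibodies were tested against human ACVR2A and mouse ACVR2A, with human Fc as the negative control.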

The target of the next experiment is mouse ACVR2A (mouse, UniProt P27038 20-135, limits assumed). Put plainly: ELISA. In short, it runs like this: as §1
Also: test concentration or dose not given here.

Sequence of human ACVR2A (P27037 20-135 limits assumed): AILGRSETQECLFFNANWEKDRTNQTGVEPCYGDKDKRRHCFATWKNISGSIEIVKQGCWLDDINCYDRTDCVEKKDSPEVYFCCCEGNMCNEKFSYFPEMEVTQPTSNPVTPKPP
Sequence of mouse ACVR2A (P27038 20-135 limits assumed): as the sequence (P27037 20-135 limits assumed) above, with K20R, V73I counted along it

B1: 370_E07 (antibody, V domains shown)
VH: EVQLLESGGGLVQPGGSLRLSCAASGFTFDSYSMNWVRQAPGKGLEWVANINYNGGYTGYADSVKGRFTISRDNSKNTLYLQMNSLRAEDTAVYYCARSATWHDTHLDYWGQGTLVTVSS
VL: DIQMTQSPSSLSASVGDRVTITCRASQSILTYLNWYQQKPGKAPKLLIYAATSRASGVPSRFSGSGSGTDFTLTISSLQPEDFATYYCQQSYDNPLTFGGGTKVEIK
notes: VH/VL only
As for B1, the optical density in experiment [1] was determined as 3.45 OD; with human ACVR2A, 3.44 OD; with mouse ACVR2A, 3.5 OD.

B2: 371_D03 (antibody, V domains shown)
VH: EVQLLESGGGLVQPGGSLRLSCAASGFTFDSYGMNWVRQAPGKGLEWVANINYNGGYTSYADSVKGRFTISRDNSKNTLYLQMNSLRAEDTAVYYCARSATWHDTALDYWGQGTLVTVSS
VL: DIQMTQSPSSLSASVGDRVTITCRASQSILTYVNWYQQKPGKAPKLVIYAATSLASGVPSRFSGSGSGTDFTLTISSLQPEDFATYYCQQSYNTPLTFGGGTKVEIK
notes: VH/VL only
With B2, the optical density in experiment [1] turned out to be 3.57 OD; with human ACVR2A it was 1.54 OD; with mouse ACVR2A it was 1.83 OD.

B3: 371_C09 (antibody, V domains shown)
VH: EVQLLESGGGLVQPGGSLRLSCAASGFTFDSYSMNWVRQAPGKGLEWVSGINYNGGYKSYADSVKGRFTISRDNSKNTLYLQMNSLRAEDTAVYYCARSATWHDTHLDYWGQGTLVTVSS
VL: DIQMTQSPSSLSASVGDRVTITCRASQSILTYVNWYQQKPGKAPKLLIYAASSLQSGVPSRFSGSGSGTDFTLTISSLQPEDFATYYCQQSYDNPLTFGGGTKVEIK
notes: VH/VL only
As to B3, the optical density amounted to 3.39 OD in experiment [1], 3.37 OD with human ACVR2A and 3.29 OD with mouse ACVR2A.

B4: 370_G12 (antibody, V domains shown)
VH: EVQLLESGGGLVQPGGSLRLSCAASGFTFSSYSMNWVRQAPGKGLEWVAGINYNGGYKGYADSVKGRFTISRDNSKNTLYLQMNSLRAEDTAVYYCARSATWHDTALDYWGQGTLVTVSS
VL: DIQMTQSPSSLSASVGDRVTITCRASQSIITYLNWYQQKPGKAPKLLIYAATSLASGVPSRFSGSGSGTDFTLTISSLQPEDFATYYCQQSDESPLTFGGGTKVEIK
notes: VH/VL only
For the molecule B4, the optical density is 3.52 OD in experiment [1], 1.34 OD in the experiment with human ACVR2A and 1.6 OD with mouse ACVR2A.

B5: 371_G03 (antibody, V domains shown)
VH: EVQLLESGGGLVQPGGSLRLSCAASGFTFSSYGMNWVRQAPGKGLEWVANINYNGGYKGYADSVKGRFTISRDNSKNTLYLQMNSLRAEDTAVYYCARSATWHDTHLDYWGQGTLVTVSS
VL: DIQMTQSPSSLSASVGDRVTITCRASQSIVTYVNWYQQKPGKAPKLVIYAATSLASGVPSRFSGSGSGTDFTLTISSLQPEDFATYYCQQSYNLPLTFGGGTKVEIK
notes: VH/VL only
As to B5, the optical density in experiment [1] came out at 3.59 OD; in the experiment with human ACVR2A, 3.12 OD; with mouse ACVR2A, 3.27 OD.

B6: 371_F05 (antibody, V domains shown)
VH: EVQLLESGGGLVQPGGSLRLSCAASGFTFSSYSMNWVRQAPGKGLEWVAGINYNSGYKSYADSVKGRFTISRDNSKNTLYLQMNSLRAEDTAVYYCARSATWHDTHLDYWGQGTLVTVSS
VL: DIQMTQSPSSLSASVGDRVTITCRASQSILSYLNWYQQKPGKAPKLLIYAATSRHSGVPSRFSGSGSGTDFTLTISSLQPEDFATYYCQQSYENPLTFGGGTKVEIK
notes: VH/VL only
As for B6, the optical density in experiment [1] was 3.33 OD; with human ACVR2A, 2.89 OD; in the experiment with mouse ACVR2A, 3.15 OD.

B7: 373_B08 (antibody, V domains shown)
VH: EVQLLESGGGLVQPGGSLRLSCAASGFTFDSYSMNWVRQAPGKGLEWVANINYNSGYKGYADSVKGRFTISRDNSKNTLYLQMNSLRAEDTAVYYCARSATWHDTHLDYWGQGTLVTVSS
VL: DIQMTQSPSSLSASVGDRVTITCRASQSILTYLNWYQQKPGKAPKLVIYAATSLASGVPSRFSGSGSGTDFTLTISSLQPEDFATYYCQQSYENPLTFGGGTKVEIK
notes: VH/VL only
B7: the optical density in experiment [1] worked out at 3.22 OD; with human ACVR2A, 3.7 OD; in the experiment with mouse ACVR2A, 3.66 OD.

B8: 370_F08 (antibody, V domains shown)
VH: EVQLLESGGGLVQPGGSLRLSCAASGFTFDSYSMNWVRQAPGKGLEWVAGINYNGGYTSYADSVKGRFTISRDNSKNTLYLQMNSLRAEDTAVYYCARSATWHDTHLDYWGQGTLVTVSS
VL: DIQMTQSPSSLSASVGDRVTITCRASQSIISYVNWYQQKPGKAPKLLIYAATSRHSGVPSRFSGSGSGTDFTLTISSLQPEDFATYYCQQSYNLPLTFGGGTKVEIK
notes: VH/VL only
In the case of B8, the results for the optical density (in experiment [1]; with human ACVR2A; with mouse ACVR2A) were 3.59 OD, 2.34 OD and 2.99 OD, respectively.

B9: 372_D04 (antibody, V domains shown)
VH: EVQLLESGGGLVQPGGSLRLSCAASGFTFSSYSMNWVRQAPGKGLEWVANINYNSGYTGYADSVKGRFTISRDNSKNTLYLQMNSLRAEDTAVYYCARSATWHDTHLDYWGQGTLVTVSS
VL: DIQMTQSPSSLSASVGDRVTITCRASQSILTYLNWYQQKPGKAPKLLIYAATSLHSGVPSRFSGSGSGTDFTLTISSLQPEDFATYYCQQSYDLPLTFGGGTKVEIK
notes: VH/VL only
For B9, the optical density in experiment [1] turned out to be 3.38 OD; with human ACVR2A it was 3.4 OD; with mouse ACVR2A, 3.41 OD.

B10: 371_H01 (antibody, V domains shown)
VH: EVQLLESGGGLVQPGGSLRLSCAASGFTFDSYSMNWVRQAPGKGLEWVAGINYNGGYTGYADSVKGRFTISRDNSKNTLYLQMNSLRAEDTAVYYCARSATWHDTHLDYWGQGTLVTVSS
VL: not shown
notes: VH/VL only
Regarding B10, the optical density in experiment [1] is 3.69 OD; with human ACVR2A it was 3.03 OD; with mouse ACVR2A, 3 OD.

B11: 373_B03 (antibody, V domains shown)
VH: EVQLLESGGGLVQPGGSLRLSCAASGFTFSSYSMNWVRQAPGKGLEWVAGINYNSGYKSYADSVKGRFTISRDNSKNTLYLQMNSLRAEDTAVYYCARSATWHDTHLDYWGQGTLVTVSS
VL: DIQMTQSPSSLSASVGDRVTITCRASQSILTYLNWYQQKPGKAPKLVIYAATSLASGVPSRFSGSGSGTDFTLTISSLQPEDFATYYCQQSYDNPLTFGGGTKVEIK
notes: VH/VL only
Regarding B11, the values for the optical density (in experiment [1]; with human ACVR2A; in the experiment with mouse ACVR2A) were 3.16 OD, 3.64 OD and 3.62 OD, respectively.

B12: 372_F07 (antibody, V domains shown)
VH: EVQLLESGGGLVQPGGSLRLSCAASGFTFDDYSMNWVRQAPGKGLEWVAGINYNSGYKGYADSVKGRFTISRDNSKNTLYLQMNSLRAEDTAVYYCARSATWHDTHLDYWGQGTLVTVSS
VL: DIQMTQSPSSLSASVGDRVTITCRASQSILTYLNWYQQKPGKAPKLVIYAATSRASGVPSRFSGSGSGTDFTLTISSLQPEDFATYYCQQSYELPLTFGGGTKVEIK
notes: VH/VL only
In the case of B12, the optical density in experiment [1] worked out at 3.4 OD; with human ACVR2A, 3.25 OD; with mouse ACVR2A, 3.24 OD.

B13: 370_H03 (antibody, V domains shown)
VH: EVQLLESGGGLVQPGGSLRLSCAASGFTFDSYSMNWVRQAPGKGLEWVAGINYNSGYKGYADSVKGRFTISRDNSKNTLYLQMNSLRAEDTAVYYCARSATWHDTHLDYWGQGTLVTVSS
VL: DIQMTQSPSSLSASVGDRVTITCRASQSILTYLNWYQQKPGKAPKLLIYAATSLASGVPSRFSGSGSGTDFTLTISSLQPEDFATYYCQQSYDTPLTFGGGTKVEIK
notes: VH/VL only
With B13, the optical density in experiment [1] was found to be 3.56 OD; with human ACVR2A, 3.43 OD; in the experiment with mouse ACVR2A, 3.56 OD.
